Data reported in PMC5586346.

Columns and labels:
[1] = molecular target: α7 nicotinic acetylcholine receptor (mouse (endogenous in EOC20)) (UniProt P49582)
[2] = molecular target: dominant-negative α7 nAChR α7_(345-8A) (UniProt P36544)
[3] = molecular target: α7 nicotinic acetylcholine receptor (mouse (endogenous in EOC20)) (UniProt P49582); remark: listed apart in the source
[4] = molecular target: dominant-negative α7 nAChR α7_(345-8A) (UniProt P36544); remark: listed apart in the source

TNF-α release (ELISA of the medium), % change from baseline with LPS, LPS + 1 mM choline, EOC20 cells transfected with empty vector [1]: -25.8%
TNF-α release (ELISA of the medium), % change from baseline with LPS, LPS + 1 mM choline, EOC20 cells transfected with α7 (345-8A) [2]: -9.22%
peak of the intracellular calcium transient (GCaMP5G, % of baseline) on 3 mM choline, EOC20 cells transfected with empty plasmid [3]: 580%
peak of the intracellular calcium transient (GCaMP5G, % of baseline) on 3 mM choline, EOC20 cells transfected with α7 (345-8A) [4]: 368%
Substance: heterotrimeric G protein subunit Gαi (from UniProt P08752 1-355) (natural protein)
